# The supplement of paper PMC9170038
# Test system: MS2 coat protein
# Assay: apparent KD of MS2 coat protein; designed switch direction (-1 OFF switch, 1 ON switch): -1; higher = weaker reporter binding
# Procedure, shortened: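 The reported apparent KD is a per-design median over clusters, from curve fits of normalised cluster fluorescence. Protein titrations used SNAP-549-labelled MS2 coat protein, doubled from 0.7 or 1.5 nM to 3 µM, in Tris-HCl pH 7.5 buffer with KCl, MgCl2, BSA, DTT, tRNA and Tween-20, with no input, 200 uM small-molecule ligand, or an oligonucleotide input. The RNA switches were transcribed on Illumina chips by stalled E. coli RNA polymerase.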
# [1] = input ligand: microRNA oligo, concentration not stated
# [2] = Eterna round: R95, input ligand: microRNA oligo, concentration not stated
# [3] = Eterna round: R95, input ligand: FMN 200 uM
# [4] = Eterna round: R95, input ligand: none
Sequence,apparent KD of MS2 coat protein (input ligand: FMN 200 uM),apparent KD of MS2 coat protein (input ligand: none),apparent KD of MS2 coat protein [1],apparent KD of MS2 coat protein [2],apparent KD of MS2 coat protein [3],apparent KD of MS2 coat protein [4]
"UGGCCACAUGAGGAUCACCCAUGUCAGGAUAUCGGAUAUAUUGUGGUUUUAAGACCAACGAGAAGGGACGGGUC [Eternabot (L1) Solution 9] (Eterna round: R97, puzzle: Exclusion 1)",119 nM,139 nM,,,,
"UGAUCUAGCGGAGGAUAUACAUGAGGAUCACCCAUGUAUAGUCCAUGUGGUGACACGUGGAACAUGUAGAAGGCCGCUAGAUCU [JL ENG2 3.83] (Eterna round: R96, puzzle: Exclusion NG 2)",228 nM,23.1 nM,24.8 nM,,,
"UGUGUACAUGAGGAUCACCCAUGUCAGGAUAUCUAGGCUCUCUCACUGACAACAGCCAAGAGAAGGGACGAGGU [EX1 B.7] (Eterna round: R97, puzzle: Exclusion 1)",36.3 nM,29.5 nM,,,,
"CAUGUGUUAGGAUAUGCACAGAUCUCCGAAAGGAGAUCUGUGCAGAAGGAACAUGAGGAUCACCCAUGUUGAUG [Mod of Brourd 16 - Jieux - Exclusion 4] (Eterna round: R97, puzzle: Exclusion 4)",136 nM,37.3 nM,,,,
"GCCCGGCGUGUAGGAUAUGGUUCCGUUUCGGUUCCAGAAGGACAUGAGGAUACAUGAGGAUCACCCAUGUGGUCGUCACCGGGC [salish99_ExNG1_r04_402] (Eterna round: R96, puzzle: Exclusion NG 1)",37.4 nM,38.7 nM,26 nM,,,
"CCCGUCGAUGUAGGAUAUGCCCGGGUCUCCCGGGCAGAAGGACAUGAGGAUCACCCAUGUUCAUGAGGAUCACCCAUGAAUGGG [Double but mutated MS2] (Eterna round: R96, puzzle: Exclusion NG 1)",12.1 nM,16.6 nM,12.1 nM,,,
UCGCUGCGAGGAUAUACAUGAGGAUCACCCAUGUGCGGGUCCGGGUCUUUGUCCAUUAGUAGAAGGCGCAGUGA [JL Laongeedie mod 5] (puzzle: Exclusion 3),,,,225 nM,,
"UAAUACAAGUAAAGAUCCUACAUGAGGAUCACCCAUGUGCUCGUCUUGUAAAGUACUAUCACGAAAGUGAUAGUACA [Mat - Sensor v3 - turn-off var 1 - Eli Mod - D85] (puzzle: Sensor v3, turn-off variant 1)",,,,196 nM,41 nM,53.1 nM
"UAGCAUUGCCAAAGGUAGUGCAAAACAUGAGGAUCACCCAUGUAGGAUAUGGUAGGCAAAGCUUACCAGAAGGACAUGAUAAAU [Mat - Exclusion NG 3 - Mod of JL - D18] (Eterna round: R96, puzzle: Exclusion NG 3)",327 nM,54.5 nM,39.7 nM,,,
"GUCCGACAUGAGGAUCACCCAUGUGAGGAUAUGCGAUUAGCUGCUAGGUAGUUAGUAUGUAGAAGGUGCAUGAA [EX1 #75] (Eterna round: R97, puzzle: Exclusion 1)",18.8 nM,17.5 nM,,,,
"AUUCAACAUGAGGAUCACCCAUGUGAGGAUAUGCGAGUAUAGACUUCGGUCUGAUAGAGCAGAAGGCGCAGAUA [EX1 #6] (Eterna round: R97, puzzle: Exclusion 1)",48.7 nM,32.8 nM,,,,
"CCAAGAAUAGGAUAUACACCAUGUCAGCUUAUAUACAACGAACAUGAGGAUCACCCAUGUAGAAGGGUUCUCUC [Exclusion-2-#1] (Eterna round: R97, puzzle: Exclusion 2)",430 nM,479 nM,,,,
"UAUCGGGACUGAGGAUAUUCGUUCGAGCACGAAGAAGAAGGUAGUGUCAGGGACAUGAGGAUCACCCAUGUGAUUUCAGUCCCA [JL ViennaUCT Erinle mod 6] (Eterna round: R96, puzzle: Exclusion NG 1)",91.4 nM,133 nM,102 nM,,,
AAGAAACAUGAGGAUCACCCAUGUGAGGAUAUGAUUAAGAAAAGAAAAGAAAGAAGACUCAGAAGGCACAAAGG [salish99-ex1_r3_069] (puzzle: Exclusion 1),,,,80.9 nM,55.5 nM,45.5 nM
"AUAAGGUGAGGAUAUCCACGACCCUACAUGAGGAUCACCCAUGUAUACAGUACGUGUAGAGGAGAAGGUACAUGUC [Eternabot (L2) Solution 78] (Eterna round: R97, puzzle: Exclusion 5)",28.3 nM,29.3 nM,,,,
"CUGUAAAGGAAGGAUAUGCUAGACGAAAGUCUAGCAGAAGGUCCUACAUGAGGAUCACCCAUGUGGCCUCACAG [Mat - Exclusion 6 - Eli Mod - D50] (Eterna round: R97, puzzle: Exclusion 6)",1500 nM,274 nM,,,,
UUUUAGUCAGGAUAUACAUUUUUUUAAUUAUUUAUAAUAUUACAUGAGGAUCACCCAUGUAGAAGGGACAUUUU [My Design] (puzzle: Exclusion 2),,,,28.6 nM,,

Sequence,apparent KD of MS2 coat protein (input ligand: FMN 200 uM),apparent KD of MS2 coat protein (input ligand: none),apparent KD of MS2 coat protein [1],apparent KD of MS2 coat protein [2],apparent KD of MS2 coat protein [3],apparent KD of MS2 coat protein [4]
"UUAGAUAGGUCAGGAUAUCGAUGAUUGAAUUGUAUGAUUUACAUGAGGAUCACCCAUGUUUUGUACGAGAAGGGACGUUAGUUU [JR_ExcNG2_Sub019] (Eterna round: R96, puzzle: Exclusion NG 2)",25.3 nM,33.5 nM,26.1 nM,,,
UUUUUUGUUGUGAGGAUAUCGUUGUUGUUGUGGAUCGAGAAGGCACAUGAGGAUCACCCAUGUUUGUUGUGGUU [JR_BMOE4_Sub086] (puzzle: Brourd's mod of Exclusion 4),,,,83.7 nM,,
GCUUGGCGAGGAUAUACAUGAGGAUCACCCAUGUGAGAAGAAUAAGUGAGGAAGAAAAGUAGAAGGCGCUGAGG [Mat - Exclusion 3 - Mod of Salish D62] (puzzle: Exclusion 3),,,,30.4 nM,56.1 nM,37.6 nM
"CUUUGCACGCUGCGGUCCUACAUGAGGAUCACCCAUGUGGUCUGGUGGCGUGGGUCGCCGGACUUGGCUCGUCUUGG [salish99_S_TOV1_R5_042] (Eterna round: R97, puzzle: Sensor, turn-off variant 1)",15.1 nM,15.7 nM,,,,
"GUAGCUUCGGCUACUACAAGCUUUUUGCUCGUCUUAUUAACAUGAGGAUCACCCAUGUCAAAGAGACCUCAUGUAUU [Sensor v3 - turn-off variant 2 - 5] (puzzle: Sensor v3, turn-off variant 2)",,,,28.2 nM,420 nM,462 nM
"AGUAAGCUAGGAUAUGCUUUGGGAAAGCAAUCCUUCGAUAAACUUGAGGAUCACCCAAGUAGAAGGAGCUUACU [jl-ex2.4.50 ViennaUCT mod] (Eterna round: R97, puzzle: Exclusion 2)",99.8 nM,25.4 nM,,,,
"ACAAAGCUUUUUGCUCGUCACAUGAGGAUCACCCAUGUGAUAUAAUGAAAAUUAUAUGACAUCCCACUAGGACAUGU [I did it?] (Eterna round: R97, puzzle: Sensor, turn-off variant 1)",18.5 nM,20.9 nM,,,,
"GAUGAAAGAGUCAGGAUAUAUAACCACGACGGCUUGUAGAAGGGACAUGAGGAUCACCCAUGUGAUGGAAUGAU [Eternabot (L2) Solution 13] (Eterna round: R97, puzzle: Brourd's mod of Exclusion 4)",64 nM,43.6 nM,,,,
"GCUUCGGCAGGAUAUACAUGAGGAUCACCCAUGUGCUUCGGCUUGAUCAAGUUGAAGUGUAGAAGGGUUGAAGU [-25.5, -22.5 kcal, 26% A, 3 bis, 3 bis] (Eterna round: R97, puzzle: Exclusion 3)",36.8 nM,78.7 nM,,,,
"UUUAAUCGUGACAUGGGUGACAUGAGGAUCACCCAUGUCACAAGCUUCUCGCUCGUCUUAUAAUUAACCCAUGUCAC [LRO Sensor-off var1-13 mod of Stov1-13-A1 by Brourd] (Eterna round: R97, puzzle: Sensor, turn-off variant 1)",17.3 nM,18.7 nM,,,,
AAAUCCGCUGAGGAUAUGAUGACUGAGAGGUCAUCAGAAGGCGGUACAUGAGGAUCACCCAUGUCUAUGGGCAA [Ex-6 Malc#29] (puzzle: Exclusion 6),,,,317 nM,313 nM,636 nM
GAGGAACAUGAGGAUCACCCAUGUGAGGAUAUGCAUAGUGAGCUAGUAGACGUUUAUUGCAGAAGGUACACUGA [JR_Exclu1_Sub080] (puzzle: Exclusion 1),,,,25.3 nM,,
"ACCGUGUAAGGAUAUCGAGGCCGAGGAAGUCGCAUGGCCUGUGAGAAGGUACAUGAGGAUCACCCAUGUCCCAU [Eternabot (L2) Solution 6] (Eterna round: R97, puzzle: Exclusion 4)",28.7 nM,27.6 nM,,,,
AUAUUGUGAGGAUAUCAGGUGUGCUAGCGUACUGGUACAUCUGAGAAGGCACAUGAGGAUCACCCAUGUUUCUU [Mat - Exclusion 4 - Mod of JL - D42] (puzzle: Exclusion 4),,,,15.2 nM,,
"AGAUGCUCAAGUCGACAUGAGGAUCACCCAUGUACAGUUAACGAGGAUAUCCGAGAUAAAUAAUAGGAGAAGGCGUGAUCAUGA [Ex NG3 #3] (Eterna round: R96, puzzle: Exclusion NG 3)",154 nM,123 nM,78.2 nM,,,
"GAUUAUGCGAGCUUUAGGGACAUGAGGAUCACCCAUGUUCGUCUUAUUAGUCUAAAUACGCUGACAUACCUAAAUCU [JMF 94] (puzzle: Sensor v3, turn-off variant 1)",,,,18 nM,14 nM,18.2 nM
